The record followed here is article PMC5520056, “Cryo-EM structures of the ATP-bound Vps4^E233Q hexamer and its complex with Vta1 at near-atomic resolution” (Nature Communications, 2017).

Sequences and labels used below:
B1: Vps4^E233Q (full-length yeast Vps4 containing an mutation) [Saccharomyces cerevisiae] / itself (parent)
chain: MSTGDFLTKGIELVQKAIDLDTATQYEEAYTAYYNGLDYLMLALKYEKNPKSKDLIRAKFTEYLNRAEQLKKHLESEEANAAKKSPSAGSGSNGGNKKISQEEGEDNGGEDNKKLRGALSSAILSEKPNVKWEDVAGLEGAKEALKEAVILPVKFPHLFKGNRKPTSGILLYGPPGTGKSYLAKAVATEANSTFFSVSSSDLVSKWMGESEKLVKQLFAMARENKPSIIFIDQVDALTGTRGEGESEASRRIKTELLVQMNGVGNDSQGVLVLGATNIPWQLDSAIRRRFERRIYIPLPDLAARTTMFEINVGDTPCVLTKEDYRTLGAMTEGYSGSDIAVVVKDALMQPIRKIQSATHFKDVSTEDDETRKLTPCSPGDDGAIEMSWTDIEADELKEPDLTIKDFLKAIKSTRPTVNEDDLLKQEQFTRDFGQEGN

Variants of B1 are the subject of the first experiment. The experiment in a line: SEC. To be noted: with itself; in the presence of ATP; height of the peak at the hexamer elution position (~12 ml); read off a plot.
For MSTGDFLTKGIELVQKAIDLDTATQYEEAYTAYYNGLDYLMLALKYEKNPKSKDLIRAKFTEYLNRAEQLKKHLESEEANAAKKSPSAGSGSNGGNKKISQEEGEDNGGEDNKKLRGALSSAILSEKPNVKWEDVAGLEGAKEALKEAVILPVKFPHLFKGNRKPTSGILLYGPPGTGKSYLAKAVATEANSTFFSVSSSDLVSKWMGESEKLVKQLFAMARENKPSIIFIDQVDALTGTRGEGESEASRRIKTELLVQMNGVGNDSQGVLVLGATNIPWQLDSAIRRRFERRIYIPLPDLAARTTMFEINVGDTPCVLTKEDYRTLGAMTEGYSGSDIAVVVKDALMQPIRKIQSATHFKDVSTEDDETRKLTPCSPGDDGAIEMSWTDIEADEAKEPDLTIKDFLKAIKSTRPTVNEDDLLKQEQFTRDFGQEGN [chain 1 L396A], the response came out at 65 mAU. As to MSTGDFLTKGIELVQKAIDLDTATQYEEAYTAYYNGLDYLMLALKYEKNPKSKDLIRAKFTEYLNRAEQLKKHLESEEANAAKKSPSAGSGSNGGNKKISQEEGEDNGGEDNKKLRGALSSAILSEKPNVKWEDVAGLEGAKEALKEAVILPVKFPHLFKGNRKPTSGILLYGPPGTGKSYLAKAVATEANSTFFSVSSSDLVSKWMGESEKLVAQLFAMARENKPSIIFIDQVDALTGTRGEGESEASRRIKTELLVQMNGVGNDSQGVLVLGATNIPWQLDSAIRRRFERRIYIPLPDLAARTTMFEINVGDTPCVLTKEDYRTLGAMTEGYSGSDIAVVVKDALMQPIRKIQSATHFKDVSTEDDETRKLTPCSPGDDGAIEMSWTDIEADELKEPDLTIKDFLKAIKSTRPTVNEDDLLKQEQFTRDFGQEGN [chain 1 K215A], the response was found to be 88 mAU.

Still in this experiment, the particulars now being: with itself; in the presence of ATP; height of the broad peak at the hexamer elution position (~11.5-12 ml); read off a plot.
For MSTGDFLTKGIELVQKAIDLDTATQYEEAYTAYYNGLDYLMLALKYEKNPKSKDLIRAKFTEYLNRAEQLKKHLESEEANAAKKSPSAGSGSNGGNKKISQEEGEDNGGEDNKKLRGALSSAILSEKPNVKWEDVAGLEGAKEALKEAVILPVKFPHLFKGNRKPTSGILLYGPPGTGKSYLAKAVATEANSTFFSVSSSDLVSKWMGESEKLVKQLFAMARENKPSIIFIDQVDALTGTRGEGESAASRRIKTELLVQMNGVGNDSQGVLVLGATNIPWQLDSAIRRRFERRIYIPLPDLAARTTMFEINVGDTPCVLTKEDYRTLGAMTEGYSGSDIAVVVKDALMQPIRKIQSATHFKDVSTEDDETRKLTPCSPGDDGAIEMSWTDIEADELKEPDLTIKDFLKAIKSTRPTVNEDDLLKQEQFTRDFGQEGN [chain 1 E247A], the response stood at 72 mAU.

Still in this experiment, the particulars now being: with itself; in the presence of ATP; height of the peak at the hexamer elution position (~12.5 ml); read off a plot.
Regarding MSTGDFLTKGIELVQKAIDLDTATQYEEAYTAYYNGLDYLMLALKYEKNPKSKDLIRAKFTEYLNRAEQLKKHLESEEANAAKKSPSAGSGSNGGNKKISQEEGEDNGGEDNKKLRGALSSAILSEKPNVKWEDVAGLEGAKEALKEAVILPVKFPHLFKGNRKPTSGILLYGPPGTGKSYLAKAVATEANSTFFSVSSSDLVSKWMGESEKLVKQLFAMARENKPSIIFIDQVDALTGTRGEGESEASRRIKTELLVQMNGVGNDSQGVLVLGATNIPWQLDSAIRRRFERRIYIPLPDLAARTTMFEINVGDTPCVLTKEDYRTLGAMTEGYSGSDIAVVVKDALMQPIRKIQSATHFKDVSTEDDETRKLTPCSPGDDGAIEMSWTDIEADELKEPDLTIKDFLKAIKSTRPTVNEDDLLKQEQFTRAFGQEGN [chain 1 D431A], the response was 42 mAU.

Still in this experiment, the particulars now being: with itself; height of the peak at the hexamer elution position (~12 ml); read off a plot.
In the case of MSTGDFLTKGIELVQKAIDLDTATQYEEAYTAYYNGLDYLMLALKYEKNPKSKDLIRAKFTEYLNRAEQLKKHLESEEANAAKKSPSAGSGSNGGNKKISQEEGEDNGGEDNKKLRGALSSAILSEKPNVKWEDVAGLEGAKEALKEAVILPVKFPHLFKGNRKPTSGILLYGPPGTGKSYLAKAVATEANSTFFSVSSSDLVSKWMGESEKLVKQLFAMARENKPSIIFIDQVDALTGTRGEGESEASRRIKTELLVQMNGVGNDSQGVLVLGATNIPWQLDSAIRRAFERRIYIPLPDLAARTTMFEINVGDTPCVLTKEDYRTLGAMTEGYSGSDIAVVVKDALMQPIRKIQSATHFKDVSTEDDETRKLTPCSPGDDGAIEMSWTDIEADELKEPDLTIKDFLKAIKSTRPTVNEDDLLKQEQFTRDFGQEGN [chain 1 R289A], the response was determined as 13 mAU.

Still in this experiment, the particulars now being: with itself; in the presence of ATP; height of the broad peak at the hexamer elution position (~12 ml); read off a plot.
On to MSTGDFLTKGIELVQKAIDLDTATQYEEAYTAYYNGLDYLMLALKYEKNPKSKDLIRAKFTEYLNRAEQLKKHLESEEANAAKKSPSAGSGSNGGNKKISQEEGEDNGGEDNKKLRGALSSAILSEKPNVKWEDVAGLEGAKEALKEAVILPVAAPHLFKGNRKPTSGILLYGPPGTGKSYLAKAVATEANSTFFSVSSSDLVSKWMGESEKLVKQLFAMARENKPSIIFIDQVDALTGTRGEGESEASRRIKTELLVQMNGVGNDSQGVLVLGATNIPWQLDSAIRRRFERRIYIPLPDLAARTTMFEINVGDTPCVLTKEDYRTLGAMTEGYSGSDIAVVVKDALMQPIRKIQSATHFKDVSTEDDETRKLTPCSPGDDGAIEMSWTDIEADELKEPDLTIKDFLKAIKSTRPTVNEDDLLKQEQFTRDFGQEGN [chain 1 K154A F155A], for which the response stood at 44 mAU.
